# Where a chain is given by its changes, count along the chain named. In names and notes the source's numbering stands.
# B1: CD80 E35D/D46V/M47L/V68M/L85Q/E88D IgV-Fc, GS(G4S)5 linker (Fc fusion)
# chain: VIHVTKEVKEVATLSCGHNVSVEELAQTRIYWQKDKKMVLTMMSGVLNIWPEYKNRTIFDITNNLSIMILALRPSDEGTYECVVQKYDKDAFKREHLAEVTLSVKADGSGGGGSGGGGSGGGGSGGGGSGGGGS
# B2: CD80 E35D/M47V/N48K/V68M/K89N IgV-Fc, EAAAK linker (Fc fusion)
# chain: VIHVTKEVKEVATLSCGHNVSVEELAQTRIYWQKDKKMVLTMMSGDVKIWPEYKNRTIFDITNNLSIMILALRPSDEGTYECVVLKYENDAFKREHLAEVTLSVKADEAAAK
# B3: CD80 E35D/D46V/M47L/V68M/L85Q/E88D IgV-Fc, EAAAK linker (Fc fusion)
# chain: B2 chain with D46V, V47L, K48N, L85Q, E88D, N89K
# B4: CD80 IgV-Fc S15T/H18Y/E35D/M47V/T62A/N64S/A71G/L85Q/D90N (Fc fusion)
# chain: VIHVTKEVKEVATLTCGYNVSVEELAQTRIYWQKDKKMVLTMMSGDVNIWPEYKNRTIFDIANSLSIVILGLRPSDEGTYECVVQKYEKNAFKREHLAEVTLSVKAD
# B5: CD80 E35D/M47V/N48K/V68M/K89N IgV-Fc, (EAAAK)3 linker (Fc fusion)
# chain: VIHVTKEVKEVATLSCGHNVSVEELAQTRIYWQKDKKMVLTMMSGDVKIWPEYKNRTIFDITNNLSIMILALRPSDEGTYECVVLKYENDAFKREHLAEVTLSVKADEAAAKEAAAKEAAAK
# B6: CD80 E35D/D46V/M47L/V68M/L85Q/E88D IgV-Fc, (EAAAK)3 linker (Fc fusion)
# chain: B5 chain with D46V, V47L, K48N, L85Q, E88D, N89K
# B7: CD80 IgV-Fc H18Y/V22A/E35D/T41S/M47V/T62N/A71G/A91G (Fc fusion)
# chain: B4 chain with T15S, V22A, T41S, A62N, S64N, Q85L, N90D, A91G
# B8: CD80 IgV-Fc E35D/D46E/M47L/V68M/L85Q/F92L (Fc fusion)
# chain: B4 chain with T15S, Y18H, D46E, V47L, A62T, S64N, V68M, G71A, N90D, F92L
# B9: CD80 E35D/M47L/Y53F/V68M/A71G/K93R/E95V IgV-Fc (Fc fusion)
# chain: VIHVTKEVKEVATLSCGHNVSVEELAQTRIYWQKDKKMVLTMMSGDLNIWPEFKNRTIFDITNNLSIMILGLRPSDEGTYECVVLKYEKDAFRRVHLAEVTLSVKAD
# B10: CD80 E35D/T41S/D46E/M47I/V68M/K93R/E95V IgV-Fc (Fc fusion)
# chain: B9 chain with T41S, D46E, L47I, F53Y, G71A
# B11: CD80 T13R/Q33R/E35D/M47L/V68M/L85M IgV-Fc (Fc fusion)
# chain: B9 chain with T13R, Q33R, F53Y, G71A, L85M, R93K, V95E
# B12: CD80 H18Y/E35D/V68M/T79M/L85M IgV-Fc (Fc fusion)
# chain: B9 chain with H18Y, L47M, F53Y, G71A, T79M, L85M, R93K, V95E
# B13: CD80 H18Y/E35D/M47V/V68M/L85M IgV-Fc (Fc fusion)
# chain: B9 chain with H18Y, L47V, F53Y, G71A, L85M, R93K, V95E
# B14: CD80 E35D/M47V/N48K/V68M/A71G/L85M IgV-Fc (Fc fusion)
# chain: B9 chain with L47V, N48K, F53Y, L85M, R93K, V95E
# B15: CD80 E35D/M47V/N48K/V68M/L85M IgV-Fc (Fc fusion)
# chain: B9 chain with L47V, N48K, F53Y, G71A, L85M, R93K, V95E
# B16: CD80 T13R/Q33R/E35D/M47L/V68M IgV-Fc (Fc fusion)
# chain: B9 chain with T13R, Q33R, F53Y, G71A, R93K, V95E
# B17: CD80 T13R/Q33R/E35D/M38I/M47L/V68M/E95V/L97Q IgV-Fc (Fc fusion)
# chain: B9 chain with T13R, Q33R, M38I, F53Y, G71A, R93K, L97Q
# Target: human PD-L1 (human) (UniProt Q9NZQ7)
# Sequence (Q9NZQ7 19-290): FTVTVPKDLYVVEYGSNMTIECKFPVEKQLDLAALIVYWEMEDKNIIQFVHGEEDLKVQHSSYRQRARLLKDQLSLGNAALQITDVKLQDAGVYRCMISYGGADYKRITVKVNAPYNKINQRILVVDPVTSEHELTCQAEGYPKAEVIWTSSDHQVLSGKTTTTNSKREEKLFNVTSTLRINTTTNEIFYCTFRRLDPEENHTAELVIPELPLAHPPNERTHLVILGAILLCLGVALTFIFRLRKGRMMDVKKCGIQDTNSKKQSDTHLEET
# Experiment: flow cytometry, CHO cells stably expressing PD-L1
MFI at 33.3 nM,Fold change to WT,Binder
22400 MFI,–,B1
22900 MFI,–,B2
24800 MFI,–,B3
13900 MFI,166 fold,B4
24500 MFI,–,B5
25500 MFI,–,B6
8460 MFI,101 fold,B7
13200 MFI,158 fold,B8

# Target: CD28 (human) (UniProt P10747)
# Experiment: flow cytometry, Jurkat cells (CD28); MFI over CD80 WT IgV-Fc
row,Fold change to WT CD80,Binder
1,2.6 fold,B1
2,47.1 fold,B2
3,10.1 fold,B3
4,23 fold,B5
5,3.5 fold,B6

# Target: human PD-L1 (human) (UniProt Q9NZQ7)
# Experiment: flow cytometry, MFI on PD-L1 over MFI on CD28
row,Ratio of PDL1:CD28,Binder
1,65.3,B9
2,31.1,B10
3,169,B11
4,14.3,B12
5,45,B13
6,75.4,B14
7,31.1,B15
8,1040,B16
9,17.2,B17

# Target: human PD-L1 (human) (UniProt Q9NZQ7)
# Experiment: flow cytometry, MFI on CHO/PD-L1 over MFI on Jurkat (CD28)
row,Ratio of PDL1:CD28,Binder
1,13,B4
2,5,B7
3,863,B8

# Target: CD28 (human) (UniProt P10747)
# Experiment: not given
row,"IL2-luciferase reporter, fold increase in RLU over WT CD80-IgV-Fc at 5.0 nM",Binder
1,5.26 fold,B1
2,4.38 fold,B2
3,3.75 fold,B3
4,4.52 fold,B5
5,5.25 fold,B6

# Target: human PD-L1 (human) (UniProt Q9NZQ7)
# Experiment: not given
row,"IL2-luciferase reporter, fold increase in RLU over WT CD80-IgV-Fc at 5.0 nM",Binder
1,5.26 fold,B1
2,4.38 fold,B2
3,3.75 fold,B3
4,4.52 fold,B5
5,5.25 fold,B6

# Target: human CTLA-4 (human) (UniProt P16410)
# Sequence (P16410 36-223): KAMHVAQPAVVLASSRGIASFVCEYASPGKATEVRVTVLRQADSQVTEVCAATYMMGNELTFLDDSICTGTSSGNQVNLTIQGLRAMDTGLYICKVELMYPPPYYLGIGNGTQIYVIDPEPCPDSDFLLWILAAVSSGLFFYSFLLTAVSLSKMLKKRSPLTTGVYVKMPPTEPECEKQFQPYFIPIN
# Experiment: flow cytometry, CHO/CTLA4 cells; MFI over CD80 WT IgV-Fc
row,Fold change to WT CD80,Binder
1,22.2 fold,B1
2,23 fold,B2
3,24.2 fold,B3
4,22.6 fold,B5
5,26.8 fold,B6

# Target: human CTLA-4 (human) (UniProt P16410)
# Experiment: flow cytometry, CHO cells stably expressing CTLA4
MFI at 33.3 nM,Fold change to WT CD80,Binder
26600 MFI,–,B1
27500 MFI,–,B2
29000 MFI,–,B3
11000 MFI,10.7 fold,B4
27100 MFI,–,B5
32000 MFI,–,B6
10300 MFI,10 fold,B7
214 MFI,0.2 fold,B8

# Target: human CTLA-4 (human) (UniProt P16410)
# Experiment: flow cytometry, CHO cells expressing CTLA4
Fold change to WT CD80,MFI at 33.3 nM,Binder
9.1 fold,16000 MFI,B9
10.5 fold,18400 MFI,B10
7.7 fold,13400 MFI,B11
9.3 fold,16300 MFI,B12
10.5 fold,18400 MFI,B13
9.5 fold,16600 MFI,B14
8.9 fold,15600 MFI,B15
11.8 fold,20700 MFI,B16
11.8 fold,20700 MFI,B17

# Target: CD28 (human) (UniProt P10747)
# Experiment: flow cytometry, Jurkat cells (CD28)
MFI at 33.3 nM,Fold change to WT,Fold change to WT CD80,Binder
143 MFI,–,–,B1
2630 MFI,–,–,B2
563 MFI,–,–,B3
1070 MFI,25.9 fold,–,B4
1280 MFI,–,–,B5
197 MFI,–,–,B6
383 MFI,–,12.2 fold,B9
476 MFI,–,15.2 fold,B10
112 MFI,–,3.6 fold,B11
1040 MFI,–,33.2 fold,B12
373 MFI,–,11.9 fold,B13
302 MFI,–,9.6 fold,B14
245 MFI,–,7.8 fold,B15
1590 MFI,38.5 fold,–,B7
14.1 MFI,–,0.4 fold,B16
1110 MFI,–,35.4 fold,B17
15 MFI,0.4 fold,–,B8

# Target: human PD-L1 (human) (UniProt Q9NZQ7)
# Experiment: flow cytometry, CHO/PD-L1 cells; MFI over CD80 WT IgV-Fc
row,Fold change to WT CD80,Binder
1,481 fold,B1
2,491 fold,B2
3,533 fold,B3
4,525 fold,B5
5,546 fold,B6

# Target: human PD-L1 (human) (UniProt Q9NZQ7)
# Experiment: flow cytometry, CHO cells expressing PD-L1
Fold change to WT CD80,MFI at 33.3 nM,Binder
486 fold,25000 MFI,B9
287 fold,14800 MFI,B10
368 fold,18900 MFI,B11
290 fold,14900 MFI,B12
326 fold,16800 MFI,B13
442 fold,22800 MFI,B14
148 fold,7620 MFI,B15
285 fold,14700 MFI,B16
372 fold,19200 MFI,B17
